The values that follow come from paper PMC6294806.

Values joined by “and” are separate entries in the source; they are usually repeats but may differ in a detail not shown here. Identical values can stand only once.

Experiment [1] has as its target Protein G of the commercial protein G-based microplate (UniProt P19909). Kind of experiment: ELISA; sandwich ELISA on commercial protein G-based microplates coated with anti-IFN-α antibody (2 μg/ml); AGP3-biotin 1 μg/ml, 1 hour at room temperature in DMEM/BSA; streptavidin-HRP and ABTS; background absorbance.
Experiment [2] deals with 8pG receptor: eight tandemly repeated protein G C2 domains fused to an HA epitope and the immunoglobulin C2-type extracellular-transmembrane-cytosolic domains of mouse B7-1 (mB7) (not stated (streptococcal cDNA) | mouse). Kind of experiment: ELISA; 3.3-biotin (1 μg/ml serially diluted in DMEM/BSA) added to paraformaldehyde-fixed 8pG cell-based microplates, room temperature 1 hour; streptavidin-HRP and ABTS, absorbance 405 nm. A general note: An ELISA detects its analyte on a solid surface through an enzyme-linked reagent.

In experiment [1], “Biotin-conjugated monoclonal mouse anti-PEG IgM antibody AGP3” gave a background OD 405 of 1.29.

In experiment [2], “Biotin-conjugated monoclonal mouse anti-PEG antibody 3.3 (IgG type)” had a fold absorbance over the commercial protein G-based microplate, 0.01 ug/mL 3.3-biotin of 6.8 fold; a fold absorbance over the commercial protein G-based microplate, 0.04 ug/mL 3.3-biotin of 6.2 fold; a fold absorbance over the commercial protein G-based microplate, 0.11 ug/mL 3.3-biotin of 2.7 fold; a fold absorbance over the commercial protein G-based microplate, 1 ug/mL 3.3-biotin of 1.2 fold. In experiment [2], this substance had a fold absorbance over the traditional polystyrene-based microplate, 0.01 ug/mL 3.3-biotin of 23 fold; a fold absorbance over the traditional polystyrene-based microplate, 0.04 ug/mL 3.3-biotin of 12.4 fold; a fold absorbance over the traditional polystyrene-based microplate, 0.11 ug/mL 3.3-biotin of 8.8 fold; a fold absorbance over the traditional polystyrene-based microplate, 1 ug/mL 3.3-biotin of 1.5 fold. In addition, the other in experiment [2] was 1.6 fold and 4.3 fold.
